B1: FES (protein)
chain: MGFSSELCSPQGHGVLQQMQEAELRLLEGMRKWMAQRVKSDREYAGLLHHMSLQDSGGQSRAISPDSPISQSWAEITSQTEGLSRLLRQHAEDLNSGPLSKLSLLIRERQQLRKTYSEQWQQLQQELTKTHSQDIEKLKSQYRALARDSAQAKRKYQEASKDKDRDKAKDKYVRSLWKLFAHHNRYVLGVRAAQLHHQHHHQLLLPGLLRSLQDLHEEMACILKEILQEYLEISSLVQDEVVAIHREMAAAAARIQPEAEYQGFLRQYGSAPDVPPCVTFDESLLEEGEPLEPGELQLNELTVESVQHTLTSVTDELAVATEMVFRRQEMVTQLQQELRNEEENTHPRERVQLLGKRQVLQEALQGLQVALCSQAKLQAQQELLQTKLEHLGPGEPPPVLLLQDDRHSTSSSEQEREGGRTPTLEILKSHISGIFRPKFSLPPPLQLIPEVQKPLHEQLWYHGAIPRAEVAELLVHSGDFLVRESQGKQEYVLSVLWDGLPRHFIIQSLDNLYRLEGEGFPSIPLLIDHLLSTQQPLTKKSGVVLHRAVPKDKWVLNHEDLVLGEQIGRGNFGEVFSGRLRADNTLVAVKSCRETLPPDLKAKFLQEARILKQYSHPNIVRLIGVCTQKQPIYIVMELVQGGDFLTFLRTEGARLRVKTLLQMVGDAAAGMEYLESKCCIHRDLAARNCLVTEKNVLKISDFGMSREEADGVYAASGGLRQVPVKWTAPEALNYGRYSSESDVWSFGILLWETFSLGASPYPNLSNQQTREFVEKGGRLPCPELCPDAVFRLMEQCWAYEPGQRPSFSTIYQELQSIRKRHR
modifications: left off: small tags and cut ends
B2: CSK (protein)
chain: MSAIQAAWPSGTECIAKYNFHGTAEQDLPFCKGDVLTIVAVTKDPNWYKAKNKVGREGIIPANYVQKREGVKAGTKLSLMPWFHGKITREQAERLLYPPETGLFLVRESTNYPGDYTLCVSCDGKVEHYRIMYHASKLSIDEEVYFENLMQLVEHYTSDADGLCTRLIKPKVMEGTVAAQDEFYRSGWALNMKELKLLQTIGKGEFGDVMLGDYRGNKVAVKCIKNDATAQAFLAEASVMTQLRHSNLVQLLGVIVEEKGGLYIVTEYMAKGSLVDYLRSRGRSVLGGDCLLKFSLDVCEAMEYLEGNNFVHRDLAARNVLVSEDNVAKVSDFGLTKEASSTQDTGKLPVKWTAPEALREKKFSTKSDVWSFGILLWEIYSFGRVPYPRIPLKDVVPRVEKGYKMDAPDGCPPAVYEVMKNCWHLDAAMRPSFLQLREQLEHIKTHELHL
modifications: left off: small tags and cut ends
B3: BTK (protein)
chain: MAAVILESIFLKRSQQKKKTSPLNFKKRLFLLTVHKLSYYEYDFERGRRGSKKGSIDVEKITCVETVVPEKNPPPERQIPRRGEESSEMEQISIIERFPYPFQVVYDEGPLYVFSPTEELRKRWIHQLKNVIRYNSDLVQKYHPCFWIDGQYLCCSQTAKNAMGCQILENRNGSLKPGSSHRKTKKPLPPTPEEDQILKKPLPPEPAAAPVSTSELKKVVALYDYMPMNANDLQLRKGDEYFILEESNLPWWRARDKNGQEGYIPSNYVTEAEDSIEMYEWYSKHMTRSQAEQLLKQEGKEGGFIVRDSSKAGKYTVSVFAKSTGDPQGVIRHYVVCSTPQSQYYLAEKHLFSTIPELINYHQHNSAGLISRLKYPVSQQNKNAPSTAGLGYGSWEIDPKDLTFLKELGTGQFGVVKYGKWRGQYDVAIKMIKEGSMSEDEFIEEAKVMMNLSHEKLVQLYGVCTKQRPIFIITEYMANGCLLNYLREMRHRFQTQQLLEMCKDVCEAMEYLESKQFLHRDLAARNCLVNDQGVVKVSDFGLSRYVLDDEYTSSVGSKFPVRWSPPEVLMYSKFSSKSDIWAFGVLMWEIYSLGKMPYERFTNSETAEHIAQGLRLYRPHLASEKVYTIMYSCWHEKADERPTFKILLSNILDVMDEES
modifications: left off: small tags and cut ends
B4: MATK(HYL) (protein)
chain: MQGHFPAERREGRPRRGTRGQQQLLVSPRFLRAWHPPPVSARMPTRRWAPGTQCITKCEHTRPKPGELAFRKGDVVTILEACENKSWYRVKHHTSGQEGLLAAGALREREALSADPKLSLMPWFHGKISGQEAVQQLQPPEDGLFLVRESARHPGDYVLCVSFGRDVIHYRVLHRDGHLTIDEAVFFCNLMDMVEHYSKDKGAICTKLVRPKRKHGTKSAEEELARAGWLLNLQHLTLGAQIGEGEFGAVLQGEYLGQKVAVKNIKCDVTAQAFLDETAVMTKMQHENLVRLLGVILHQGLYIVMEHVSKGNLVNFLRTRGRALVNTAQLLQFSLHVAEGMEYLESKKLVHRDLAARNILVSEDLVAKVSDFGLAKAERKGLDSSRLPVKWTAPEALKHGKFTSKSDVWSFGVLLWEVFSYGRAPYPKMSLKEVSEAVEKGYRMEPPEGCPGPVHVLMSSCWEAEPARRPPFRKLAEKLARELRSAGAPASVSGQDADGSTSPRSQEP
modifications: left off: small tags and cut ends
B5: FER (protein)
chain: KSGVVLLNPIPKDKKWILSHEDVILGELLGKGNFGEVYKGTLKDKTSVAVKTCKEDLPQELKIKFLQEAKILKQYDHPNIVKLIGVCTQRQPVYIIMELVSGGDFLTFLRRKKDELKLKQLVKFSLDAAAGMLYLESKNCIHRDLAARNCLVGENNVLKISDFGMSRQEDGGVYSSSGLKQIPIKWTAPEALNYGRYSSESDVWSFGILLWETFSLGVCPYPGMTNQQAREQVERGYRMSAPQHCPEDISKIMMKCWDYKPENRPKFSELQKELTIIKRKLT
modifications: left off: a dimerising Fc or GST
B6: TEC (protein)
chain: MNFNTILEEILIKRSQQKKKTSPLNYKERLFVLTKSMLTYYEGRAEKKYRKGFIDVSKIKCVEIVKNDDGVIPCQNKYPFQVVHDANTLYIFAPSPQSRDLWVKKLKEEIKNNNNIMIKYHPKFWTDGSYQCCRQTEKLAPGCEKYNLFESSIRKALPPAPETKKRRPPPPIPLEEEDNSEEIVVAMYDFQAAEGHDLRLERGQEYLILEKNDVHWWRARDKYGNEGYIPSNYVTGKKSNNLDQYEWYCRNMNRSKAEQLLRSEDKEGGFMVRDSSQPGLYTVSLYTKFGGEGSSGFRHYHIKETTTSPKKYYLAEKHAFGSIPEIIEYHKHNAAGLVTRLRYPVSVKGKNAPTTAGFSYEKWEINPSELTFMRELGSGLFGVVRLGKWRAQYKVAIKAIREGAMCEEDFIEEAKVMMKLTHPKLVQLYGVCTQQKPIYIVTEFMERGCLLNFLRQRQGHFSRDVLLSMCQDVCEGMEYLERNSFIHRDLAARNCLVSEAGVVKVSDFGMARYVLDDQYTSSSGAKFPVKWCPPEVFNYSRFSSKSDVWSFGVLMWEVFTEGRMPFEKYTNYEVVTMVTRGHRLYQPKLASNYVYEVMLRCWQEKPEGRPSFEDLLRTIDELVECEETFGR
modifications: left off: small tags and cut ends
B7: BMX (protein)
chain: MDTKSILEELLLKRSQQKKKMSPNNYKERLFVLTKTNLSYYEYDKMKRGSRKGSIEIKKIRCVEKVNLEEQTPVERQYPFQIVYKDGLLYVYASNEESRSQWLKALQKEIRGNPHLLVKYHSGFFVDGKFLCCQQSCKAAPGCTLWEAYANLHTAVNEEKHRVPTFPDRVLKIPRAVPVLKMDAPSSSTTLAQYDNESKKNYGSQPPSSSTSLAQYDSNSKKIYGSQPNFNMQYIPREDFPDWWQVRKLKSSSSSEDVASSNQKERNVNHTTSKISWEFPESSSSEEEENLDDYDWFAGNISRSQSEQLLRQKGKEGAFMVRNSSQVGMYTVSLFSKAVNDKKGTVKHYHVHTNAENKLYLAENYCFDSIPKLIHYHQHNSAGMITRLRHPVSTKANKVPDSVSLGNGIWELKREEITLLKELGSGQFGVVQLGKWKGQYDVAVKMIKEGSMSEDEFFQEAQTMMKLSHPKLVKFYGVCSKEYPIYIVTEYISNGCLLNYLRSHGKGLEPSQLLEMCYDVCEGMAFLESHQFIHRDLAARNCLVDRDLCVKVSDFGMTRYVLDDQYVSSVGTKFPVKWSAPEVFHYFKYSSKSDVWAFGILMWEVFSLGKQPYDLYDNSQVVLKVSQGHRLYRPHLASDTIYQIMYSCWHELPEKRPTFQQLLSSIEPLREKDKH
modifications: left off: small tags and cut ends
B8: PTK2(FAK) (protein)
chain: MAAAYLDPNLNHTPNSSTKTHLGTGMERSPGAMERVLKVFHYFESNSEPTTWASIIRHGDATDVRGIIQKIVDSHKVKHVACYGFRLSHLRSEEVHWLHVDMGVSSVREKYELAHPPEEWKYELRIRYLPKGFLNQFTEDKPTLNFFYQQVKSDYMLEIADQVDQEIALKLGCLEIRRSYWEMRGNALEKKSNYEVLEKDVGLKRFFPKSLLDSVKAKTLRKLIQQTFRQFANLNREESILKFFEILSPVYRFDKECFKCALGSSWIISVELAIGPEEGISYLTDKGCNPTHLADFTQVQTIQYSNSEDKDRKGMLQLKIAGAPEPLTVTAPSLTIAENMADLIDGYCRLVNGTSQSFIIRPQKEGERALPSIPKLANSEKQGMRTHAVSVSETDDYAEIIDEEDTYTMPSTRDYEIQRERIELGRCIGEGQFGDVHQGIYMSPENPALAVAIKTCKNCTSDSVREKFLQEALTMRQFDHPHIVKLIGVITENPVWIIMELCTLGELRSFLQVRKYSLDLASLILYAYQLSTALAYLESKRFVHRDIAARNVLVSSNDCVKLGDFGLSRYMEDSTYYKASKGKLPIKWMAPESINFRRFTSASDVWMFGVCMWEILMHGVKPFQGVKNNDVIGRIENGERLPMPPNCPPTLYSLMTKCWAYDPSRRPRFTELKAQLSTILEEEKAQQEERMRMESRRQATVSWDSGGSDEAPPKPSRPGYPSPRSSEGFYPSPQHMVQTNHYQVSGYPGSHGITAMAGSIYPGQASLLDQTDSWNHRPQEIAMWQPNVEDSTVLDLRGIGQVLPTHLMEERLIRQQQEMEEDQRWLEKEERFLKPDVRLSRGSIDREDGSLQGPIGNQHIYQPVGKPDPAAPPKKPPRPGAPGHLGSLASLSSPADSYNEGVKLQPQEISPPPTANLDRSNDKVYENVTGLVKAVIEMSSKIQPAPPEEYVPMVKEVGLALRTLLATVDETIPLLPASTHREIEMAQKLLNSDLGELINKMKLAQQYVMTSLQQEYKKQMLTAAHALAVDAKNLLDVIDQARLKMLGQTRPH
modifications: left off: a dimerising Fc or GST
B9: JAK3 (protein)
chain: ISSDYELLSDPTPGALAPRDGLWNGAQLYACQDPTIFEERHLKYISQLGKGNFGSVELCRYDPLGDNTGALVAVKQLQHSGPDQQRDFQREIQILKALHSDFIVKYRGVSYGPGRQSLRLVMEYLPSGCLRDFLQRHRARLDASRLLLYSSQICKGMEYLGSRRCVHRDLAARNILVESEAHVKIADFGLAKLLPLDKDYYVVREPGQSPIFWYAPESLSDNIFSRQSDVWSFGVVLYELFTYCDKSCSPSAEFLRMMGCERDVPALCRLLELLEEGQRLPAPPACPAEVHELMKLCWAPSPQDRPSFSALGPQLDMLWSGSRGCETHAFTAHPEGKHHSLSFS
modifications: left off: a dimerising Fc or GST

Tested on: kinases of Table 6 on Myelin Basic Protein (MBP)
Assay: Kinase assay using MBP substrate, ProQ Diamond stain (Table 6)
Format: biochemical
Details: kinase printed on MBP-coated slide; 20 uM ATP, 30° C.; ProQ Diamond Microarray Stain; graded Strong/Weak/Negative
Outline: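 Bovine dephosphorylated MBP coated on aldehyde- or epoxy-glass slides, kinases printed on top; reaction buffer pH 7.5 with 4 mM MgCl2, 20 uM ATP, 5% DMSO, ± inhibitor, at 30° C. Phosphorylation detected by ProQ Diamond stain, 30 min in dark.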

Row | Molecule | MBP Kinase Activity
1 | B1 | Negative
2 | B2 | Negative
3 | B3 | Strong
4 | B4 | Negative
5 | B5 | Negative
6 | B6 | Negative
7 | B7 | Strong
8 | B8 | Negative
9 | B9 | Strong
